# Measurements: publication PMC12442346, “Novel regulatory mechanism of choline-O-sulfate and choline catabolism by two BetIs in Alphaproteobacteria” (Applied and Environmental Microbiology, 2025)
# Columns and labels:
# [1] = system: BetI2 (Ruegeria pomeroyi DSS-3); experiment: MST; details: EMSA: 2 mM EDTA, 20 mM KCl, 0.5 mM DTT, 4% Ficoll-400, pH 8.0, 2 ug poly(dI-dC), 20 uL, protein 0-28 uM, MST: 1x PBS pH 7.4, 0.05% Tween-20, 25 C
# [2] = system: T1, BetI2 (Ruegeria pomeroyi DSS-3), ORF:6e67dd5c; experiment: EMSA; details: EMSA: 2 mM EDTA, 20 mM KCl, 0.5 mM DTT, 4% Ficoll-400, pH 8.0, 2 ug poly(dI-dC), 20 uL, protein 0-28 uM; MST: 1x PBS pH 7.4, 0.05% Tween-20, 25 C
# T1 sequence: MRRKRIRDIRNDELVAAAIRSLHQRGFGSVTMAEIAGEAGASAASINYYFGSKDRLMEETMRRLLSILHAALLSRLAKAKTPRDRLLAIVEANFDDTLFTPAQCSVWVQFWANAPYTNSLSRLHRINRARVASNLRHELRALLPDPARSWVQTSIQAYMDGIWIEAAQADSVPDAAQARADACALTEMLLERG
# [3] = target: T2, BetI2 (Ruegeria pomeroyi, UniProt Q5LUG8); experiment: microscale thermophoresis of BetI2 binding to DNA probes with or without choline; details: effector; DNA probes P1 (betI2 box 1) and P2 (betI2 box 2); 1x PBS pH 7.4, 0.05% Tween-20, 25 C; labelled protein
# T2 construct: gene betI; full length gene in pET28a(+), C-terminal His-tag, expressed in E. coli BL21(DE3), Ni-NTA and gel filtration; RED-Tris-NTA labelled for MST
# T2 sequence (Q5LUG8 1-193): T1 sequence
compound,measurement,setting,value
"P1 (IGR variant, betI2 box 1 only)",binding signal (fold affinity of P1 over P2),[1]; choline,2
same,binding signal (fold Kd of P1 over P2),[1]; no choline,4
IGR (MST probe),Kd,[1]; no choline stated,870 nM
GGCCATATTGGCCAATCGGCCAAAGGGTTCAAGTTTAAAGGATTATCGAAAAACTTGAACGACTGTTCAAGTTTTGGTTCTTTTGATCAGGTTATTGTGCTAATTTCCCGCATCATTCGACCCGGCCCGGAGGAGAGGGCGGGCGTGAACCCAGGGAGGGACCATGAT (double strand) [IGR (EMSA probe)],binding,[2],binds
C[N+](C)(C)CCO [choline],microscale thermophoresis of BetI2 binding to DNA probes with or without choline,[3],The affinities of BetI2 to the IGR probe variants with or without choline were determined
"P2 (IGR variant, betI2 box 2 only)",binding signal (affinity relative to P1 with choline),[1],0.5
same,binding signal,"[1]; no choline, scale: reference for P1 without choline",1
